Results as given in PMC5384220.

Biological target: T1, N-terminally Hexa-His-tagged KDM4A (residues 1–359) (human) (UniProt O75164)
T1 sequence: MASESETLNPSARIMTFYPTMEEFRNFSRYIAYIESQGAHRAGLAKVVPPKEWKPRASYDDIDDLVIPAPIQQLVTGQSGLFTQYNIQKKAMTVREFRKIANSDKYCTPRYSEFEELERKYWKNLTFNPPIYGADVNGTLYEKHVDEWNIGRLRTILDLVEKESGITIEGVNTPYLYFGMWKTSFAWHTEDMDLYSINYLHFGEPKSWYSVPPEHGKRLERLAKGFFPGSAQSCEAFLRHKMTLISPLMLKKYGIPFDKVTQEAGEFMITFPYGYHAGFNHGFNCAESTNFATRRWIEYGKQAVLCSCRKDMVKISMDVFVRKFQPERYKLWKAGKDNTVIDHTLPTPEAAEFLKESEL

IC50 of inhibition of demethylase activity (AlphaScreen method): 40 nM
Binder: RRRRRRRRR [PolyR (Arg)9 peptide]
